According to patent publication US20260207700A1, “MEDICAL PRODUCTS CONTAINING AN AQUEOUS FORMULATION OF A PEPTIDE” (LYTIX BIOPHARMA AS, priority 2022, published 2026):
Non-standard residues stand in square brackets, D forms with d. No end group written: not given here. Dip = N[C@H](C(=O)O)C(c1ccccc1)c1ccccc1

Key:
[1] = 20-30° C., protected from light; cited from earlier work
[2] = pH of LTX-315 drug product on storage (Ph. Eur. 2.2.3), Example 1.1; type: physicochemical; settings: 20 mg/mL in WFI
Procedure: (§1) • LTX-315=acetate salt of peptide with sequence K-K-W-W-K-K-W-Dip-K-NH2 20 mg/mL LTX-315 drug product was prepared by dissolving LTX-315 powder in WFI and filtered through a 0.22 μm sterile filter. 1 ml of the drug product was then filled into vials and sealed. The WFI complied to the Ph. Eur monograph 0169 for WFI. All product contact vials, glassware and peripherals were sterilised by depyrogenation in a hot air oven at 250° C. for 120 minutes after twice rinsing with WFI. Product contact tubing, stoppers and over-seals were twice rinsed with WFI then sterilised by autoclaving for >15 minutes at 121° C. then dried overnight in a drying oven. The vials were stored as set out in Table 1 below and analysed according to the listed parameters. Appearance was tested visually according to Ph.Eur 2.9.20 and osmolality according to Ph. Eur. 2.2.35. pH was tested according to Ph. Eur. 2.2.3. Colour and clarity were tested according to Ph. Eur 2.2.2 and Ph. Eur 2.2.1, respectively.

[3] = Appearance of LTX-315 drug product in sealed vials on storage (visual, Ph.Eur 2.9.20), Example 1.1; type: physicochemical
Procedure: as §1

[4] = Purity/related substances after storage, HPLC, Example 1.3; type: physicochemical; settings: 20 mg/mL in WFI
Procedure: (§2) Reversed phase HPLC, using a trifluoracetic acid (TFA) system and UV detection at 220 nm, was used to determine the amount of LTX-315 after storage of the vials in accordance with the storage conditions set out in Table 2.
(§3) The column used was an RP C18, e.g. Waters Sunfire, 3.5 μm, 4.6×150 mm. The LTX-315 concentration in the test sample solution was 0.5 mg/ml and the injection volume 10 μl. The gradient profile used is set out below and the flow rate was 1.2 mL/min.
(§4) Drug product was prepared and stored as described in Example 1.1.
HPLC analysis was performed as described in Example 1.2 to determine the concentration of LTX-315 and the amount of related substances, i.e. substances formed due to and thus related to the degradation of LTX-315 in the drug product.

[5] = LTX-315 concentration after storage, reversed phase HPLC UV 220 nm, Example 1.2; type: physicochemical; settings: for LTX-315 concentration, Vial 1 / LTX-315 concentration, Vial 2 / Mean content / Rec./T = 0 / Rec./theory (percentage of theoretical 20 mg/mL): 20 mg/mL in WFI
Procedure: as §4, §2, §3

[6] = Osmolality of LTX-315 drug product on storage (Ph. Eur. 2.2.35), Example 1.1; type: physicochemical; settings: 20 mg/mL in WFI
Procedure: as §1

C[C@@H](O)[C@@H]1NC(=O)[C@H](CCCCN)NC(=O)[C@@H](Cc2c[nH]c3ccccc23)NC(=O)[C@H](Cc2ccccc2)NC(=O)[C@@H](NC(=O)[C@H](N)Cc2ccccc2)CSSC[C@@H](C(=O)N[C@H](CO)[C@@H](C)O)NC1=O [octreotide]
Permitted storage time of liquid product [1]: up to 14 days

K-K-W-W-K-K-W-Dip-K-NH2 (KKWWKKW[Dip]K-NH2) [LTX-315]
pH ([2]; 2-8° C., T = 3 months): 6.2 | pH ([2]; 2-8° C., T = 6 months): 6.0 | pH ([2]; 2-8° C., T = 12 months): 6.1 | pH ([2]; 2-8° C., T = 24 months): 6.1 | pH ([2]; 25° C./60% RH, T = 3 months): 6.2 | pH ([2]; 25° C./60% RH, T = 6 months): 6.1 | pH ([2]; Initial (T = 0)): 6.1 | Change in appearance, osmolality, pH, colour and clarity ([3]; 6 months at 25° C. with 60% RH in the dark): no change | Change in appearance, osmolality, pH, colour and clarity ([3]; 24 months in the dark at 2-8° C.): no change | Total related substances (sum of related substances >0.05%) ([4]; 2-8° C., 1 M): 1.31 area % | Total related substances (sum of related substances >0.05%) ([4]; 2-8° C., 3 M): 1.32 area % | Total related substances (sum of related substances >0.05%) ([4]; 2-8° C., 6 M): 0.98 area % | Total related substances (sum of related substances >0.05%) ([4]; 2-8° C., 9 M): 1.54 area % | Total related substances (sum of related substances >0.05%) ([4]; 2-8° C., 12 M): 1.34 area % | Total related substances (sum of related substances >0.05%) ([4]; 2-8° C., 18 M): 1.37 area % | Total related substances (sum of related substances >0.05%) ([4]; 2-8° C., 24 M): 1.64 area % | Total related substances (sum of related substances >0.05%) ([4]; 2-8° C., Initial (T = 0)): 0.88 area % | Total related substances (sum of related substances >0.05%) ([4]; 25° C./60% RH, 1 M): 1.55 area % | Total related substances (sum of related substances >0.05%) ([4]; 25° C./60% RH, 3 M): 1.97 area % | Total related substances (sum of related substances >0.05%) ([4]; 25° C./60% RH, 6 M): 2.31 area % | Total related substances (sum of related substances >0.05%) ([4]; 25° C./60% RH, Initial (T = 0)): 0.88 area % | LTX-315 concentration, Vial 1 ([5]; 2-8° C., T = 1 month): 20.548 mg/mL | LTX-315 concentration, Vial 2 ([5]; 2-8° C., T = 1 month): 19.916 mg/mL | Mean content ([5]; 2-8° C., T = 1 month): 20.2 mg/mL | Rec./T = 0 ([5]; 2-8° C., T = 1 month): 96.3% | Rec./theory (percentage of theoretical 20 mg/mL) ([5]; 2-8° C., T = 1 month): 101.2% | LTX-315 concentration, Vial 1 ([5]; 2-8° C., T = 3 months): 21.241 mg/mL | LTX-315 concentration, Vial 2 ([5]; 2-8° C., T = 3 months): 21.276 mg/mL | Mean content ([5]; 2-8° C., T = 3 months): 21.2 mg/mL | Rec./T = 0 ([5]; 2-8° C., T = 3 months): 101.1% | Rec./theory (percentage of theoretical 20 mg/mL) ([5]; 2-8° C., T = 3 months): 106.3% | LTX-315 concentration, Vial 1 ([5]; 2-8° C., T = 6 months): 20.979 mg/mL | LTX-315 concentration, Vial 2 ([5]; 2-8° C., T = 6 months): 21.027 mg/mL | Mean content ([5]; 2-8° C., T = 6 months): 21.0 mg/mL | Rec./T = 0 ([5]; 2-8° C., T = 6 months): 99.9% | Rec./theory (percentage of theoretical 20 mg/mL) ([5]; 2-8° C., T = 6 months): 105.0% | LTX-315 concentration, Vial 1 ([5]; 2-8° C., T = 9 months): 20.311 mg/mL | LTX-315 concentration, Vial 2 ([5]; 2-8° C., T = 9 months): 20.631 mg/mL | Mean content ([5]; 2-8° C., T = 9 months): 20.4 mg/mL | Rec./T = 0 ([5]; 2-8° C., T = 9 months): 97.4% | Rec./theory (percentage of theoretical 20 mg/mL) ([5]; 2-8° C., T = 9 months): 102.4% | LTX-315 concentration, Vial 1 ([5]; 2-8° C., T = 12 months): 20.895 mg/mL | LTX-315 concentration, Vial 2 ([5]; 2-8° C., T = 12 months): 20.631 mg/mL | Mean content ([5]; 2-8° C., T = 12 months): 20.7 mg/mL | Rec./T = 0 ([5]; 2-8° C., T = 12 months): 98.8% | Rec./theory (percentage of theoretical 20 mg/mL) ([5]; 2-8° C., T = 12 months): 103.8% | LTX-315 concentration, Vial 1 ([5]; 2-8° C., T = 18 months): 19.204 mg/mL | LTX-315 concentration, Vial 2 ([5]; 2-8° C., T = 18 months): 19.990 mg/mL | Mean content ([5]; 2-8° C., T = 18 months): 19.6 mg/mL | Rec./T = 0 ([5]; 2-8° C., T = 18 months): 93.2% | Rec./theory (percentage of theoretical 20 mg/mL) ([5]; 2-8° C., T = 18 months): 98.0% | LTX-315 concentration, Vial 1 ([5]; 2-8° C., T = 24 months): 20.150 mg/mL | LTX-315 concentration, Vial 2 ([5]; 2-8° C., T = 24 months): 19.669 mg/mL | Mean content ([5]; 2-8° C., T = 24 months): 19.9 mg/mL | Rec./T = 0 ([5]; 2-8° C., T = 24 months): 94.7% | Rec./theory (percentage of theoretical 20 mg/mL) ([5]; 2-8° C., T = 24 months): 99.5% | LTX-315 concentration, Vial 1 ([5]; 25° C./60% RH, T = 1 month): 20.269 mg/mL | LTX-315 concentration, Vial 2 ([5]; 25° C./60% RH, T = 1 month): 20.194 mg/mL | Mean content ([5]; 25° C./60% RH, T = 1 month): 20.2 mg/mL | Rec./T = 0 ([5]; 25° C./60% RH, T = 1 month): 96.2% | Rec./theory (percentage of theoretical 20 mg/mL) ([5]; 25° C./60% RH, T = 1 month): 101.2% | LTX-315 concentration, Vial 1 ([5]; 25° C./60% RH, T = 3 months): 20.897 mg/mL | LTX-315 concentration, Vial 2 ([5]; 25° C./60% RH, T = 3 months): 20.222 mg/mL | Mean content ([5]; 25° C./60% RH, T = 3 months): 20.5 mg/mL | Rec./T = 0 ([5]; 25° C./60% RH, T = 3 months): 97.8% | Rec./theory (percentage of theoretical 20 mg/mL) ([5]; 25° C./60% RH, T = 3 months): 102.8% | LTX-315 concentration, Vial 1 ([5]; 25° C./60% RH, T = 6 months): 20.575 mg/mL | LTX-315 concentration, Vial 2 ([5]; 25° C./60% RH, T = 6 months): 20.215 mg/mL | Mean content ([5]; 25° C./60% RH, T = 6 months): 20.3 mg/mL | Rec./T = 0 ([5]; 25° C./60% RH, T = 6 months): 97.0% | Rec./theory (percentage of theoretical 20 mg/mL) ([5]; 25° C./60% RH, T = 6 months): 102.0% | LTX-315 concentration, Vial 1 ([5]; Initial (T = 0)): 21.068 mg/mL | LTX-315 concentration, Vial 2 ([5]; Initial (T = 0)): 20.978 mg/mL | Mean content ([5]; Initial (T = 0)): 21.0 mg/mL | Rec./theory (percentage of theoretical 20 mg/mL) ([5]; Initial (T = 0)): 105.1% | Change in LTX-315 concentration ([5]; 2-8° C., 24 months): very slight decrease | Concentration of LTX-315 versus T=0 ([5]; 25° C. with 60% relative humidity, six months): the same as the concentration at T=0 | Osmolality ([6]; 2-8° C., T = 6 months): 133 mOsmkg^−1 | Osmolality ([6]; 2-8° C., T = 12 months): 133 mOsmkg^−1 | Osmolality ([6]; 2-8° C., T = 24 months): 132 mOsmkg^−1 | Osmolality ([6]; 25° C./60% RH, T = 6 months): 133 mOsmkg^−1 | Osmolality ([6]; Initial (T = 0)): 132 mOsmkg^−1
